# Experimental data from publication PMC9385276.
# Read-outs that look alike come from different tables or passages of the source.
# B1: Aa10 (structured_DNA)
# DNA: CAGGCTACGGCACGTAGAGCATCACCATGATCCTGAAAAAATAATACGACTCACTATAGGGTCCGTAGCCTG
# B2: Aa11 (structured_DNA)
# DNA: CAGGCTACGGCACGTAGAGCATCACCATGATCCTGAAAAAATAATACGACTCACTATAGGGCCGTAGCCTG
# Assays:
# PDGF-BB [1] = target: T1, PDGF-BB (human, UniProt P01127 82-190); test: ELISA
# PDGF-BB [2] = target: T1, PDGF-BB; test: ELISA; remark: listed apart in the source
# T1 sequence (P01127 82-190): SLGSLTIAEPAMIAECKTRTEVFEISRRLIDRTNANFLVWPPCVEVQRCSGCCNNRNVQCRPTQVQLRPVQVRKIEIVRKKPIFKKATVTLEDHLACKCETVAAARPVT
Binder,binding result (PDGF-BB [1]),binding result (PDGF-BB [2])
B1,binds,
B2,,binds
